# Data: the NTF2 design screens of Basanta et al. (2020)
# Experiment: protease stability score; higher = more stable; yeast display proteolysis, trypsin and chymotrypsin;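 also: log10 excess protease needed over predicted unfolded state with 0 meaning unfolded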
row,Sequence,protease stability score
1,DEEAQRLLEKAMKALEQNNPQQFVNLLDPNATMIVGDKVYHGRESARKALDDIRSTMRVEVKDVKASAQGDKVQARMRVILDHNGKPSDRTQNITVRVHNGKMTSVELKTDT,0.88
2,DEEAREILRRFFTALNTNDEDQLVELVDKDVKIQVGDKEIHGREELKEHQVESYRRSRVDFRVTDIKASGDKVTAKIVVSRESDGQPRKTTQRMEFRFENGHMKHVHEDSDG,0.064
3,DEEARKEIKKAARAYKTGDWQELVHQMDEDVKVEYGDHKIDGHEQVQKWVDENRKQLTMSVKSLSVELSGNTASVDMKHDARHNGRPRTQTAHIEIQAHNGRLKRVKIEYTQ,-0.178
4,DEEARKLVHRILEAWKHGDEEHFKEQFDPNVDVDVGDKRYHGRHTIATRVQRELDEIDIRIEVHHITVEGDRADMDATVVLNINGKPVHVRVTWVFQITNGVAVYMQLRVSEDQRREQES,1.15
5,DEEARNVFEEILKAIRHGDPDHAKNLADPNARIRVGDKKVDGMEQWATEMHHNWQEIRIHMRITSVDHQGEKVRLHLSRTSNHNGRPRKADIDLEMVATNGKLKSQKHSQKK,0.2
6,DEEARRVWHKLMDALRTGDPEKFRNNADPNARIQYGNETIHGMRDNARTVMTMLHRLDVEWEIKDVKVRPNRIDVIYVLRVHIDGKPYQVHIQADATFHNGKLQSIRKRVDEDEQRKLDR,0.379
7,DEEASKKIKTLVQILNTGDPDKAVKLFDPNARFQVGDKEISGREQFKEVLKKLKHKMRNDIKVKHVEVNNGHANAHAVMTVQVNGQPDHFTFIMRIQWHNGVIEHREVQMDEDELRRYNS,0.339
8,DEEASKQLEEYLRALQTGDSHRVQQLLDPNAKARVGDHTYHGHKEILDWLNKLNEKMRFSIERLSVSVRGDQVEFSFKFDATFNGRPFHASQTMQINVHNGRLKKLTIQLDPEQLDTQRS,-0.088
9,DEEASKRFEKFQHLLRDGNEDRVQKLVDPNVKFDLGSTSLHGMEEVARTLVQRYRSIRIRQEIDTYEVKGDTVRFKQKVQWNINGQPFSDHITFEAHQTNGKFSHVVIRIDPQLLEELRK,0.503
10,DEEATKELREWLHNRTKNNEEELHKYADPNAKFVIGDKTYHGMEEAVESQVHKDKHMNIHIESIHMDADGEHVRASEVVTFEVNGKPFRYSFRYNVTMSNGRLKSQSVRVDERDEEQEKQ,-0.325
11,DEEATKNAERLMRALNTNNEDEVLEMVDKNATMQYGDKTYHGREEISQAVDERRKEMRVHLRRVTVNAQGDKLDIKANMEVDHNGRPIKVNLRIEAKAHNGRITDIKIETDPELTRQRRT,0.539
12,DEEAVEIAHEVNKALNENDEHRLRELFDPNAKIQYGDNVIKGSDNLVKDIRRKSKRMRVRFDVKSIDNQGDKVEIDANYRQTHDGEPRTRKVDAKLRVENGRIKHFSARFTP,-0.044
13,DEEAVKKMMEEWHKALESKNDDQFRKIYKPNVEWVNGDTKRQGQEDVVKMLQKVQKDGAEFQVRDAKVEGDRARMVYDLNVGDKTATFTVEMDAEGGRVDRVQVEIDEKAKKVLTEG,0.294
14,DEEAVKRANEMVEAWEHGDESRFMKLVDPNAQVRVGDKEVHGKEDMNRSIQEESRQLRVHRRVESVESQGNEVKIDLVFTQNVNGQPIQQRVDVVITFRNGKAVDIQLDIPEDQQQQHRR,-0.131
15,DEEAVKRVEHFMKNIREGNEQKAREYADKNATIHVGDKTVHGREDLERWVRQVKEEQRMDVRSFHATADNGNVDVKVTAEIEHNGQPRHHHYTAQFNISNGKIQSVTVDDHP,-0.099
16,DEEAVKTLEHMFEAVRDGNPDEVKKQVDPNVKIEIGDKTYKGKDQWAQDVETKKDEMRFTYHSIEFKNEPNRVKISIDRTETHNGQPRRHHVDMEARVHNGVIVRMKAKESG,-0.124
17,DEEAVNIHKTILEAEQSGDPDKFRQNVDPNVRYRYGDKEIHGREQAAERVKEKRDQARFQFDSIHIKVHGDKARAHFDFVVDHNGNPHRMSFTVVFNAHGDKLEFEIIKFDPRMKKELDS,0.198
18,DEEAVNLINRLLEARKYNDPDSMKRLADENAQFVIGDKEVKGMETYARHVVQTMSRWRIDIKSVHHQSRGSKAEVDVRAKVNVNGRPDTLSITYRAHVTNGRIKELEVRFDPDQHRKLTS,0.019
19,DEEAVRHYHEMVREEETGNEDEAMKYFDPNATVRIGDKTVKGKDSIRKWVRDRRDEMRVEIHQLNVHVSNGQIDVSVDFTKEHNGRPQTMQQKVRVTATNGKIKKVNNHDDG,-0.261
20,DEEAYRLFSEMEKARKDNDEEKLRELADEDVRFEVGDSVIKGMTRWATRVVQTAREQRFSYDIKRWHIEGDKVVVHREVRESHNGQPRSRTVVYRAHVDNGRVKSVTVEDTG,0.158
21,DEEDADRILKLLKKNNFEELARNADPNVHVRIGDTRIHGREEVTSHMKRLTDRIDHVDWRSMSVTGDRVVVRAVYTVNGDRIDFEIEIQFHNGRVVSVRFQARDEDDKHKYRKAEK,0.428
22,DEEDAEDVVRKVNKILRDGDWEKFVNLMDKNAHARIGDQTYSGRSAAEDIARDVHRQVDHVEIKRVEVQGNTVHIDMVVEHNGREEKRVMDLIITNGRLRMVEYQHG,-0.107
23,DEEDAEKILRTAAKAVENGDHKKLVDLGKDGVEYQLADEKAHGPEVMKKVLDYQRKLGVRVELKEVHHEGNKVVTVLVYYHGNTKLEVQIHATADGGKIDRVEVKVPETLKKQLKHG,0.137
24,DEEDAHEQVHRIVKALETGDPDQVVNQADENVRIHVGEKTVHGQEKVREFVEEYNEQVDDVNVRHVSLDGNKATVTIDIDVNGNKRRVHFRFQFDNGRVQTIRVDTS,0.719
25,DEEDAKNAVRAVEALVTGDPDKMSKLFDKHASVEVGDKRVRGREEIRELAEQLEREMRLRVEIKHVQIQGDKVDVKFDAQRHHNGRPDDNKQTMHLTAHDGRVKNMSITSNG,-0.376

row,Sequence,protease stability score
1,DEEDAKRVEEMLEALRTGDWKKATDMADPDARFQIGDKRYHGMHQVAREWKNQYDQMRIEINVKEWNIHNGRVDLKFEQKNDHNGKPDNFRASATFQFHNGQLVEAQYQRDS,0.634
2,DEEDAKVLKQVLENVESGDSKSAETLLDKDVKFVIGDKVLHGRTQYVDRVRRETKRMRVKRQVQHYEVNNGRVHMTIDIQYDIDGKPLRDQITLTAEFHNGRMQSLEVKMDRDFKRKVDK,0.313
3,DEEDANDMRHVWEVLDTGDEERFLQMVDPNVKVVIGDKEYHGRENLRKFLQDQKREMSERIKSIRVHDHNGRIKINAHATNQQNGQPHSFNIDAEAELHNGKITHLNVQTDG,2.17
4,DEEDANNVAEQMMEIVERGDEERASELADPNAKFNIGDKKYEGRENLQKAIRHFRQRADHLEIKSLSVTPGHLKMRFVVKHNGQRNEVVIHVKAHNGKIVEIQVRNS,0.15
5,DEEDANRHVREFWKNVETGNEDDLRDLADPNARLFVGDKKYRGRSEMAKAFKEIRKNVDHFELKSVQEKGDKVKVVAVWNHNGRNVEMVVIFVAHNGRIKEVQVRHK,0.233
6,DEEDAQTLQRVLNHGDPDEWVRLADENVHARVGDKTYSGREHLKTFWHKLREQVDEIEVKSVDISGDRVQADIIYVVNGKRIRVTMVAHVNNGRIKEYKIHYRNEEVRDQLREAQS,0.793
7,DEEDDARKAAEALKAFFKGDPEKFRDLADEDVQVRIGDNVYTGRTEANEAVENFKRQVDHVEFKDLNNRGNKVFADVVVRFNGEDIRVTLYAEVHNGKLKYMQVDPTAQKQLEK,0.65
8,DEEDDKEMEKAIRALLYGDPDKVKKLADPNVNIQYGDKEIQGREEVSKHVDNLRHESRMRVQTMDNDLSGDHAKFDVQYESNHNGKPDTRRVDINAKAHNGHVKHMQWNKDE,-0.25
9,DEEDDKKMAETLKRLHNTGNPDELLKHFDPDAKFQIGEKTVHGREQAQEFMKRIKDRVDHQSVDSIHAHNGQVNVQVKVEINGKTRVVDIVYHFHNGRFKQVVFDPRAIRRMKS,0.175
10,DEEDDKKMNELLKQIQTGNDQKVERLIDPNANMHIGNQDIHGSEDVRKWIEKITKELNITFKVNHFRVKGDKIKIKVKINVKHNGQPDSDTIDLVARVENGHFTRIELHMDEKRWKKQVS,1.15
11,DEEDDKRIAEDVVRQLQTGNPDQARDQADPNAEFRVGDRTIHGRDSFRRLMKETRDEVDKVQVQDFEMHNGHFSVNLVFNINGKEKLVHMSAQFKNGTIKHLSVQDQ,-0.36
12,DEEDDRRTAKRFAENVMKGNQDEARKLADEDATVNVGDQHVHGREELARVMHDLRRQVDHIQLDSLEVQGNKADINVTMRVNGRHVTADITVTVHNGRVKQFSLNPEVAQEIKR,-0.345
13,DEEDEARKMMEELDKAWKTGDSERYAQLLDPNARMVIGDKEYHGRDDVRKWFHEMLRRVDHVQLHLTSIDIRNGKVDARAEVRLNHNGKDTSDTVIFRLQHDNGHIKIRSVKNK,0.251
14,DEEDEARTMADRIRHALENGDEQKFAEQADPNASVRIGDRTWHGRRQISNRLKEERERADHVELEIKSIKLHGDRVKIDFVLEQDINGRHETTQLTMTAELHNGNVRFKMMKEK,-0.332
15,DEEDEDWAEKVATTGNFDEAARDADQNATVKVGDKTWHGREEVTRAMDLLEKQADHVRVSRFKVENGEVNFHVVIEFNGNEIDVTANARFRNGRLTYFSIDARSEHESKSLQKLLE,0.497
16,DEEDEERFEELLKAEEDGDEDRMNELVDENAEFHYGDTVIDGMTDYAREVVHRLNELRWHIDWDDMKQSNGRIQVRAKLVVKVNGTPNNDDVERQVQWDNGRVHQMNERFDSKKHKEMDK,-0.158
17,DEEDEEVVRQWLEAYKTGDPDQLKRNADPNARIQVGDKVLHGMEDAKTELKEQRDHQRFRFHMDSVSVHGNRVEITMKADVDVNGRPIHFTNSFVFTLHNGKIRHIDLQVPEELKHQMTK,-0.125
18,DEEDEKHIDDVLKQGDFDEMARNADKDATVRIGEKEYRGREDVVRMLEIIHKRADEVHVDSVRVTNGRLKMDVVFDVNGVQANVILVINVHNGKIKNITLKYRNEELSRKLDKILR,0.821
19,DEEDEQKIAKDFVRALERGDEDRVMELADPNVRIVIGDKRYEGREELKKLVRTFKKRADHAEVHSIDIRNGTVIVDYVIHHNGRNSQQYLYVSFNNGRIKSMRVQDG,2.07
20,DEEDEQKLAQTLAEVWKQNDEDQFVRLLDKDARVKVGDNEFRGREEAKRMMQELHRRVDHMEIKSVHAKNGSITATLRAEINGKEWRFILEAVYHNGQVKSVHIRDQ,1.68
21,DEEDEREVAKQAVDDLVKGNPDRASELADPNVHVEIGDKTYRGQTQMASALKDFRKNVDSVQIDDLKLHGNKADVDMRVDHNGQQQKYHVIVIVHNGRVSELKIKEK,1.48
22,DEEDERKFAEEFHKVLQTNNEEEIRKMFDPNVTAHVGDKRIHGREEVATVIARLARRADHIRLEHVEVENGRITMTLRADVDGRDVQFRVILTVRNGVVQEVQFDYTSEDQFREIQK,1.59
23,DEEDERRKVQDVAKAIKKGNEKELRKLADEDAKWRVGDTDLHGMERIQKDQATRRREVDNVEIKSVDVHNGRAHVTFVVNHNGKNVEVTNTADFKNGKVKNVQVDPSKVEELKK,-0.328
24,DEEDERTVKERMKKNNFDELAKNADENARATYGDKTYHGREQVRKAAKDFKDAVDRVKIDSISVHNGTVRMEFTVVINGRHFEMVLYVHVHNGKVQHMEFQATDDKIRKDLKRLQE,-0.275
25,DEEDESRHAEIAIRALAQGDEEELRRQVDPNARVRIGEFNVHGREAAHKAVKTLQEEFDHVDLTHVTTRGEKARVDVKYKKNGKEVTFQLEAKVHDGKVKELQMEKG,-0.241
